From the supplement of paper PMC10065799, “High-throughput profiling of sequence recognition by tyrosine kinases and SH2 domains using bacterial peptide display” (eLife, 2023)

Columns and labels:
EPHB1 = EPHB1 (UniProt P54762); assay: phosphorylation enrichment, bacterial display (enrichment ratio); higher = better substrate or ligand; peptides without Tyr show the background
AncSZ = assay: as above
c-Abl (mouse) = assay: as above
Jak2 = Jak2 (UniProt O60674); assay: as above
EPHB2 = EPHB2 (UniProt P29323); assay: as above
Chain of EPHB2 (P29323 whole entry, looked up): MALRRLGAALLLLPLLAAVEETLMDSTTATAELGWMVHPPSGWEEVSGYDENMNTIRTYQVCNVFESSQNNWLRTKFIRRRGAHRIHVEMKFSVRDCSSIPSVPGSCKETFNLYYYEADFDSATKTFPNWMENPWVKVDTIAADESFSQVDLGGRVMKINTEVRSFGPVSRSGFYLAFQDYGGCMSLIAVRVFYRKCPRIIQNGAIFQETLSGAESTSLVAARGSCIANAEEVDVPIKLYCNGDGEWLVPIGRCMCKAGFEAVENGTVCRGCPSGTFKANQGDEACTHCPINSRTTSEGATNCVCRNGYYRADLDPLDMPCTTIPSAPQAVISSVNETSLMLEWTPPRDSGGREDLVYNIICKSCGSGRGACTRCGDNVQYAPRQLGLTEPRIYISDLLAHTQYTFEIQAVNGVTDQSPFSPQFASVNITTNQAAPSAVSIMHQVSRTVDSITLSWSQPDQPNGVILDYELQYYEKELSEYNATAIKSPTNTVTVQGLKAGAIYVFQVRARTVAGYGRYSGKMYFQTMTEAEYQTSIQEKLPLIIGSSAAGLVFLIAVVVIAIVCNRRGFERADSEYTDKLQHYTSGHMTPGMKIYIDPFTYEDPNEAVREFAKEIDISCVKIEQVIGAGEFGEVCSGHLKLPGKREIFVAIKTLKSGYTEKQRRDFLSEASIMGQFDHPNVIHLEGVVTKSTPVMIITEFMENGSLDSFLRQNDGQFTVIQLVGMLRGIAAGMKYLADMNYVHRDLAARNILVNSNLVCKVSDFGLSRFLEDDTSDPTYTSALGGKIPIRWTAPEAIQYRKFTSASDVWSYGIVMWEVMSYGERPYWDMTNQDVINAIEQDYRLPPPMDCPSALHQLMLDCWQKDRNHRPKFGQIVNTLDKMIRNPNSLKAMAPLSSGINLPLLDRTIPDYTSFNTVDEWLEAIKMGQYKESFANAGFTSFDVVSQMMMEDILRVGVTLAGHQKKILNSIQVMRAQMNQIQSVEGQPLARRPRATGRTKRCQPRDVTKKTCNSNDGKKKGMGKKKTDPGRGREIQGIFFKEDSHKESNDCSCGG

MERTK = MERTK (UniProt Q12866); assay: as above
Chain of MERTK (Q12866 whole entry, looked up): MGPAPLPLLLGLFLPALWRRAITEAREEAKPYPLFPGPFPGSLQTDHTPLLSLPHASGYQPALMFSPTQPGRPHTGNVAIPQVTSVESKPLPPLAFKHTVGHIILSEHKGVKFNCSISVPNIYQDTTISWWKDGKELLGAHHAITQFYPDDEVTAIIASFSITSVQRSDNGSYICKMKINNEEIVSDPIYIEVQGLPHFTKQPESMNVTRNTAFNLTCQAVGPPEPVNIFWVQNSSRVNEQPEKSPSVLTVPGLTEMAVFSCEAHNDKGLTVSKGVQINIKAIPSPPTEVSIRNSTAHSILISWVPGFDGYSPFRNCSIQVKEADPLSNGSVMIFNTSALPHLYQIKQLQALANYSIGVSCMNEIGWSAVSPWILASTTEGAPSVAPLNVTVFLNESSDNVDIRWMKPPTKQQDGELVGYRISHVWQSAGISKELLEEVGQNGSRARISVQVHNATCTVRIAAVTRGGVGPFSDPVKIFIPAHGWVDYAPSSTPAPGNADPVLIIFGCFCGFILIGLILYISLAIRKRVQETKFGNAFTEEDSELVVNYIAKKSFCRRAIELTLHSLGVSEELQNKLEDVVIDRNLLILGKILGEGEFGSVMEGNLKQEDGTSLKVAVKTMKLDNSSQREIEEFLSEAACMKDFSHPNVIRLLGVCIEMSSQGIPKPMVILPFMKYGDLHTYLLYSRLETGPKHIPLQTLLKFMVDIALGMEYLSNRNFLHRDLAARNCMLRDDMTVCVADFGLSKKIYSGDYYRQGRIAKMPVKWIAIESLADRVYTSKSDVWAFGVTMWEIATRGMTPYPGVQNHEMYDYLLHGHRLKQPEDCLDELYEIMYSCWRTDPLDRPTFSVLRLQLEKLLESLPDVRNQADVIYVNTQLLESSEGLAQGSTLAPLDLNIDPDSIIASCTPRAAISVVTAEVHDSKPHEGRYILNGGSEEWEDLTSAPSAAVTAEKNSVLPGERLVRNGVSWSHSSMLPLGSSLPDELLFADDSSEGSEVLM

FGFR1 = FGFR1 (UniProt P11362); assay: as above
Hck = Hck (UniProt P08631); assay: as above
FGFR3 = FGFR3 (UniProt P22607); assay: as above
Chain of FGFR3 (P22607 whole entry, looked up): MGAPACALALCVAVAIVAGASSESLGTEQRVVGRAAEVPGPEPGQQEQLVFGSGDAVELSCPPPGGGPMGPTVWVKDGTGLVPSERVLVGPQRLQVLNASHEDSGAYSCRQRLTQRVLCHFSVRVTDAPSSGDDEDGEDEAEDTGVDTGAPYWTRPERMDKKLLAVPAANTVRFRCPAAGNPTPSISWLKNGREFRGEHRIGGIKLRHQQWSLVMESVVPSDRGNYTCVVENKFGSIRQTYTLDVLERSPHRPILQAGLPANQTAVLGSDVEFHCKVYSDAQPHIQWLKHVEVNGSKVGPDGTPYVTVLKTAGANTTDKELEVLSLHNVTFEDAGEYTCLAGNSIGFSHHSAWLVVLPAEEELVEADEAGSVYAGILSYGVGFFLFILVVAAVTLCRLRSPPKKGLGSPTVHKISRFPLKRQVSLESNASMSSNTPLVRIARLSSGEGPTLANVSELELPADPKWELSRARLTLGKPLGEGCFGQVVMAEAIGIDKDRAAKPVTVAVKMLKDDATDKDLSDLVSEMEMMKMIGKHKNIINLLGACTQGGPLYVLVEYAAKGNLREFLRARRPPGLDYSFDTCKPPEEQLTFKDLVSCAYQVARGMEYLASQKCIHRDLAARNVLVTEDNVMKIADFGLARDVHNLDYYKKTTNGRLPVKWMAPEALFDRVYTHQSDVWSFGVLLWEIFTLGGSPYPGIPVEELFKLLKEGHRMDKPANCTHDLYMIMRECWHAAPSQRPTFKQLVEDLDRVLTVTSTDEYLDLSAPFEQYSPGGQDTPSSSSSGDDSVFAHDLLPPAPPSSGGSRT

Fyn = Fyn (UniProt P06241); assay: as above
Fer (mouse) = assay: as above
Fes = Fes (UniProt P07332); assay: as above
Chain of Fes (P07332 whole entry, looked up): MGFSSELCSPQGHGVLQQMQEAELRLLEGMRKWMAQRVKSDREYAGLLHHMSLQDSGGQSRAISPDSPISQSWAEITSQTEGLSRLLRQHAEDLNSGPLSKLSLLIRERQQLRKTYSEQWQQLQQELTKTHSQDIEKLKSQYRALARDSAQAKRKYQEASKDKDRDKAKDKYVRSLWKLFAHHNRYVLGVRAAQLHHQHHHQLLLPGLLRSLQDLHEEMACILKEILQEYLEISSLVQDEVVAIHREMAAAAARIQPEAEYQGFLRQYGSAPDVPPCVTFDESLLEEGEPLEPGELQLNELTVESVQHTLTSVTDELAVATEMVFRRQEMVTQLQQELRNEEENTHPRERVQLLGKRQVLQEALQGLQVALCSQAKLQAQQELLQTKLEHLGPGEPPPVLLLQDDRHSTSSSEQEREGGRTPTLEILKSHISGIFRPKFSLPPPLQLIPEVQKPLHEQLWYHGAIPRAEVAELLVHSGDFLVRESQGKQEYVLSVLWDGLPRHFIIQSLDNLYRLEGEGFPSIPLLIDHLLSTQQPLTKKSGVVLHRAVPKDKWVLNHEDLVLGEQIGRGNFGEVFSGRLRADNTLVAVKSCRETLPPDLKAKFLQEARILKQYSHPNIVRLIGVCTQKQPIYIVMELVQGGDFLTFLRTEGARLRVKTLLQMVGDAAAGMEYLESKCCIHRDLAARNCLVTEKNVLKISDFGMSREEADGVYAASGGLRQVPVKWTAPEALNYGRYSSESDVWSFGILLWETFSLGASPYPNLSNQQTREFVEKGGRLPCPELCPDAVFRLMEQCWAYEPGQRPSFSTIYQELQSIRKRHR

c-Src = assay: as above
SHP2-C SH2 = assay: SH2 binding enrichment of the phosphorylated peptide, bacterial display (enrichment ratio); higher = better substrate or ligand; peptides without Tyr show the background
Grb2 SH2 = Grb2 SH2 (UniProt P62993); assay: as above
c-Src SH2 = assay: as above
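For SH2 binding enrichment of the phosphorylated peptide, bacterial display in this document: peptide library displayed on the E. coli surface as eCPX fusions, selected cells deep-sequenced, score is each peptide's frequency after selection divided by its frequency in the input.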
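For phosphorylation enrichment, bacterial display in this document: 11-residue human phosphosite peptides and single-mutation variants displayed on the E. coli surface, counted by deep sequencing, each peptide's frequency after selection divided by its frequency in the unselected input library; frequency after pTyr selection over input frequency; kinase dosed for 20-30% of maximal phosphorylation in three min.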

Chain of EPHB1 (P54762 whole entry, looked up): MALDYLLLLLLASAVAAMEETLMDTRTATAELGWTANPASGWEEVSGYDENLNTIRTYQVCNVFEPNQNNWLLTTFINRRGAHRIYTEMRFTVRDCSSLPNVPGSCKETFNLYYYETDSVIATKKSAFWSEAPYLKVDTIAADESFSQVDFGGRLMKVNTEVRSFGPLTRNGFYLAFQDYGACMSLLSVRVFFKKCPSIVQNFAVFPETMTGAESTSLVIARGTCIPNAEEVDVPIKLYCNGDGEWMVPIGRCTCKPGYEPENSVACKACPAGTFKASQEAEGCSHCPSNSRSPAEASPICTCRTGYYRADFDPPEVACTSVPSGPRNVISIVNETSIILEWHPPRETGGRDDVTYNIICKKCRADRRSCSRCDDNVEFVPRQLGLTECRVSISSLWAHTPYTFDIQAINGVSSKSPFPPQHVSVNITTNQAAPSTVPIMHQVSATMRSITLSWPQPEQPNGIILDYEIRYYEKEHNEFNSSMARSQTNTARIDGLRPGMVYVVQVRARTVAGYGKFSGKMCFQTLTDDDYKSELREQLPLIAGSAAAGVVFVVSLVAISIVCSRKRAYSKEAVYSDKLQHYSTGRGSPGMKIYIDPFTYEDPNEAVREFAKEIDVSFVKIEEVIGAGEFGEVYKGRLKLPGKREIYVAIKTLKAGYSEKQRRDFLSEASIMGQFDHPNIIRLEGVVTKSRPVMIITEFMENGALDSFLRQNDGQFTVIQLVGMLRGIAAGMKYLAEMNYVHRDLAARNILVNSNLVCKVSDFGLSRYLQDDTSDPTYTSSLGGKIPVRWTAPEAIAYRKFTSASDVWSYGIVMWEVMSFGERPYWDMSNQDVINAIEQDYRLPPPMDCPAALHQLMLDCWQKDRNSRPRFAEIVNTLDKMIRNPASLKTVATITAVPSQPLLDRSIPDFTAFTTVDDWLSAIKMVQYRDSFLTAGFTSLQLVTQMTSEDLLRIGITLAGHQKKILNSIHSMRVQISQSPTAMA

Sequence | SH2 binding enrichment (SHP2-C SH2) | SH2 binding enrichment (Grb2 SH2) | SH2 binding enrichment (c-Src SH2) | phosphorylation enrichment (EPHB1) | phosphorylation enrichment (AncSZ) | phosphorylation enrichment (c-Abl (mouse)) | phosphorylation enrichment (Jak2) | phosphorylation enrichment (EPHB2) | phosphorylation enrichment (MERTK) | phosphorylation enrichment (FGFR1) | phosphorylation enrichment (Hck) | phosphorylation enrichment (FGFR3) | phosphorylation enrichment (Fyn) | phosphorylation enrichment (Fer (mouse)) | phosphorylation enrichment (Fes) | phosphorylation enrichment (c-Src)
SHLSAYPALEG [CD5_Y465] | 0.687 | 0.897 | 0.618 | 0.351 | 0.611 | 0.531 | 0.483 | 0.398 | 0.324 | 0.404 | 0.372 | 0.411 | 0.375 | 0.409 | 0.591 | 0.343
SIIKDSFHRGA [GATM_Y203_Y203S] | 0.829 | 0.838 | 0.482 | 0.342 | 0.423 | 0.497 | 0.404 | 0.334 | 0.362 | 0.379 | 0.394 | 0.462 | 0.369 | 0.403 | 0.414 | 0.387
SIKDKYVTAFY [KCNH2_Y611_L615F] | 0.525 | 0.607 | 0.461 | 0.488 | 0.578 | 0.391 | 0.523 | 0.439 | 0.358 | 0.483 | 0.414 | 0.475 | 0.428 | 0.401 | 0.67 | 0.383
SLEKSYELPDG [ACTA1_Y242] | 0.65 | 0.824 | 1.26 | 0.614 | 1.06 | 0.712 | 0.913 | 0.531 | 0.467 | 0.544 | 0.534 | 0.707 | 0.49 | 0.538 | 1.15 | 0.479
SLEKSYKLPDG [ACTA1_Y242_E243K] | 0.592 | 0.889 | 0.469 | 0.408 | 0.658 | 0.574 | 0.649 | 0.434 | 0.462 | 0.467 | 0.393 | 0.455 | 0.397 | 0.429 | 0.757 | 0.41
SLQAHYDTPRS [DOK7_Y405_R402Q] | 0.636 | 0.916 | 5.05 | 0.435 | 0.513 | 3.19 | 0.53 | 0.479 | 0.529 | 0.352 | 0.37 | 0.38 | 0.366 | 0.593 | 0.539 | 0.368
SMAKFYASGIA [ACADSB_Y373_E376G_YF] | 1 | 0.701 | 0.359 | 0.344 | 0.738 | 0.51 | 0.677 | 0.485 | 0.464 | 0.428 | 0.469 | 0.561 | 0.461 | 0.369 | 0.636 | 0.352
SNMPTYSGHFT [GRIN2A_Y1224] | 0.88 | 0.68 | 0.414 | 0.636 | 0.529 | 0.457 | 0.653 | 0.602 | 0.74 | 0.354 | 1.47 | 0.428 | 1.71 | 3.39 | 0.557 | 2.04
SNNFIYTTLGV [FAM83B_Y639_K640T_YF] | 0.927 | 0.936 | 0.72 | 2.23 | 0.899 | 1.56 | 0.666 | 1.39 | 6.9 | 1.22 | 7.53 | 1.16 | 7.76 | 2.67 | 0.885 | 5.65
SNNYIYKTLGV [FAM83B_Y639] | 0.968 | 1.01 | 0.393 | 0.48 | 0.523 | 0.494 | 0.46 | 0.328 | 0.357 | 0.484 | 0.549 | 0.546 | 0.467 | 0.354 | 0.58 | 0.476
SPRDTYSDRSG [CTPS1_Y567] | 0.503 | 0.76 | 0.479 | 0.298 | 0.494 | 0.608 | 0.521 | 0.473 | 0.322 | 0.382 | 0.507 | 0.438 | 0.443 | 0.369 | 0.572 | 0.375
SRASFYRKGGC [ALK_Y1283_Y1278S_YF] | 0.548 | 0.674 | 0.433 | 0.431 | 0.702 | 0.529 | 0.615 | 0.467 | 0.567 | 0.381 | 0.477 | 0.496 | 0.433 | 0.476 | 0.627 | 0.575
SREALYNEMDP [CACNA1A_Y794] | 0.489 | 0.913 | 1.28 | 0.735 | 1.41 | 0.852 | 1.14 | 0.693 | 2.36 | 0.692 | 0.834 | 0.896 | 0.685 | 0.731 | 1.24 | 0.869
SRLSAYPALEG [CD5_Y465_H461R] | 0.69 | 0.899 | 0.437 | 0.348 | 0.723 | 0.471 | 0.674 | 0.495 | 0.496 | 0.486 | 0.436 | 0.469 | 0.425 | 0.391 | 0.803 | 0.533
SSEFHYVGGFF [CTSC_Y347_YF] | 0.607 | 0.688 | 0.376 | 0.646 | 0.949 | 0.897 | 0.904 | 0.532 | 0.428 | 0.572 | 0.544 | 0.813 | 0.516 | 0.558 | 1.16 | 0.707
SSFPDYLAAVD [GLB1_Y154_D151Y_YF] | 2.81 | 0.816 | 0.509 | 0.604 | 1.31 | 0.703 | 0.925 | 0.603 | 0.422 | 0.676 | 0.576 | 0.761 | 0.586 | 0.66 | 1.09 | 0.497
STQAHYRLSAF [ADAMTS9_Y100_S96T] | 0.859 | 0.759 | 0.513 | 0.395 | 0.582 | 0.427 | 0.487 | 0.381 | 0.409 | 0.44 | 0.456 | 0.536 | 0.461 | 0.386 | 0.63 | 0.323
SVFNNYIQTLG [CTNND1_Y174_S171F] | 0.917 | 1.05 | 0.739 | 0.835 | 0.705 | 0.557 | 0.775 | 0.418 | 0.411 | 0.585 | 0.463 | 0.528 | 0.442 | 0.391 | 0.678 | 0.402

Further lines, with some results ahead:

SH2 binding enrichment (SHP2-C SH2) | SH2 binding enrichment (Grb2 SH2) | SH2 binding enrichment (c-Src SH2) | Sequence | phosphorylation enrichment (EPHB1) | phosphorylation enrichment (AncSZ) | phosphorylation enrichment (c-Abl (mouse)) | phosphorylation enrichment (Jak2) | phosphorylation enrichment (EPHB2) | phosphorylation enrichment (MERTK) | phosphorylation enrichment (FGFR1) | phosphorylation enrichment (Hck) | phosphorylation enrichment (FGFR3) | phosphorylation enrichment (Fyn) | phosphorylation enrichment (Fer (mouse)) | phosphorylation enrichment (Fes) | phosphorylation enrichment (c-Src)
1.06 | 0.948 | 0.383 | SHMVDYQPFRK [TEX37_Y25_YF] | 0.549 | 0.564 | 0.967 | 1.03 | 0.445 | 0.473 | 0.387 | 0.732 | 0.464 | 0.5 | 0.294 | 0.705 | 0.672
0.885 | 0.932 | 0.367 | SHSMRYFDTSV [HLA-C_Y31_A35S] | 0.482 | 0.581 | 0.455 | 0.543 | 0.448 | 0.386 | 0.47 | 0.393 | 0.463 | 0.432 | 0.37 | 0.576 | 0.432
0.64 | 0.752 | 0.423 | SHSMRYFSTAV [HLA-C_Y31_D33S] | 0.431 | 0.719 | 0.578 | 0.625 | 0.452 | 0.425 | 0.657 | 0.452 | 0.569 | 0.459 | 0.435 | 0.763 | 0.441
0.612 | 0.681 | 0.855 | SILAVYSKDNY [PANK2_Y400] | 0.478 | 0.925 | 0.653 | 0.549 | 0.486 | 0.588 | 0.451 | 0.875 | 0.524 | 0.756 | 0.425 | 0.664 | 1.11
1.67 | 1.41 | 1.07 | SPFMLYQFLKQ [RPAP3_Y567_D564Y_YF] | 4.55 | 1.15 | 0.938 | 1.07 | 2.73 | 4.11 | 1.14 | 4.2 | 0.99 | 0.621 | 3.37 | 1.34 | 0.867
0.594 | 0.792 | 0.44 | SSDKVYAHQMV [MLH1_Y379] | 0.404 | 0.551 | 0.537 | 0.431 | 0.401 | 0.476 | 0.379 | 0.458 | 0.416 | 0.538 | 0.494 | 0.573 | 0.514
0.433 | 0.643 | 0.607 | SSMIDYNTLEK [MYOC_Y479_P481T] | 0.428 | 0.792 | 0.486 | 0.904 | 0.506 | 0.408 | 0.401 | 0.482 | 0.568 | 0.452 | 0.453 | 0.748 | 0.401
0.901 | 0.882 | 0.442 | SSPVLYLSPET [TJP1_Y931_P930L] | 1.14 | 1.21 | 1.61 | 1.02 | 0.815 | 0.782 | 0.663 | 0.626 | 0.713 | 0.534 | 0.459 | 0.833 | 0.469
0.62 | 0.924 | 0.462 | SSSGGYGGGYG [KRT19_Y61_A60G] | 0.326 | 0.456 | 0.374 | 0.479 | 0.337 | 0.342 | 0.408 | 0.379 | 0.335 | 0.352 | 0.333 | 0.534 | 0.377
0.797 | 0.977 | 0.591 | SVEVPYEPPEV [TP53_Y220_V217E] | 0.579 | 1.44 | 1.08 | 1.41 | 0.675 | 0.564 | 0.622 | 0.596 | 0.907 | 0.603 | 0.572 | 1.4 | 0.549
0.653 | 0.88 | 0.472 | SVIKEYQIRQV [USH2A_Y3623_G3618S] | 0.505 | 0.648 | 0.409 | 0.567 | 0.346 | 0.328 | 0.377 | 0.443 | 0.509 | 0.352 | 0.415 | 0.68 | 0.381
0.781 | 0.826 | 0.936 | SVVVPYEPPGV [TP53_Y220_E224G] | 0.525 | 0.883 | 0.494 | 0.55 | 0.53 | 0.485 | 0.469 | 0.471 | 0.56 | 0.544 | 0.498 | 0.769 | 0.407
0.619 | 0.66 | 0.864 | SVVVPYEPTEV [TP53_Y220_P223T] | 0.725 | 0.992 | 0.885 | 1.27 | 0.765 | 0.578 | 0.481 | 0.506 | 0.742 | 0.522 | 0.709 | 1.33 | 0.482
0.694 | 0.827 | 1.83 | SVVVPYETPEV [TP53_Y220_P222T] | 0.715 | 1.42 | 0.849 | 1.14 | 0.862 | 0.556 | 0.569 | 0.56 | 0.774 | 0.541 | 0.639 | 1.41 | 0.505
0.671 | 0.835 | 0.537 | SVVVPYGPPEV [TP53_Y220_E221G] | 0.472 | 0.75 | 0.601 | 0.689 | 0.543 | 0.476 | 0.57 | 0.41 | 0.556 | 0.46 | 0.402 | 0.739 | 0.425
